Test results: patent publication US20240409659A1

Tests used:
[1] = target: Human FcγRIIIA-F158 (human) (UniProt P08637)
Human FcγRIIB (human) = Human FcγRIIB (human) (UniProt P31994)
Human FcRn (human) = Human FcRn (human) (UniProt P55899)
Human FcγRI (human) = Human FcγRI (human) (UniProt P12314)
Human FcγRIIA (human) = Human FcγRIIA (human) (UniProt P12318)
Human FcγRIIIB (human) = Human FcγRIIIB (human) (UniProt O75015)

A kon [1] of 880000 M⁻¹ s⁻¹, a kon (Human FcγRIIB (human)) of 124000 M⁻¹ s⁻¹ and a kon (Human FcRn (human)) of 1.98e+06 M⁻¹ s⁻¹ were found for control IgG (7101+7103) (antibody) in this work. The kon (Human FcγRI (human)) was 289000 M⁻¹ s⁻¹, the kon (Human FcγRIIA (human)) was 300000 M⁻¹ s⁻¹ and the kon (Human FcγRIIIB (human)) was 128000 M⁻¹ s⁻¹.
